Laboratory results reported in patent US20110190196A1 (University of California, published 2011).
Read-outs that look alike come from different tables or passages of the source.

Key:
Experiment in all cases: cell-based or functional assay
[1] = biological target: T1, ATP-binding cassette transporter A1 (ABCA1) (UniProt P41233 1-2261, limits assumed)
[2] = biological target: T1, ATP-binding cassette transporter A1 …; remark: listed apart in the source
[3] = biological target: T1, ATP-binding cassette transporter A1 …; remark: listed apart in the source
[4] = biological target: T1, ATP-binding cassette transporter A1 …; remark: listed apart in the source
[5] = biological target: T1, ATP-binding cassette transporter A1 …; remark: listed apart in the source
[6] = biological target: T1, ATP-binding cassette transporter A1 …; remark: listed apart in the source

T1 sequence (P41233 whole entry): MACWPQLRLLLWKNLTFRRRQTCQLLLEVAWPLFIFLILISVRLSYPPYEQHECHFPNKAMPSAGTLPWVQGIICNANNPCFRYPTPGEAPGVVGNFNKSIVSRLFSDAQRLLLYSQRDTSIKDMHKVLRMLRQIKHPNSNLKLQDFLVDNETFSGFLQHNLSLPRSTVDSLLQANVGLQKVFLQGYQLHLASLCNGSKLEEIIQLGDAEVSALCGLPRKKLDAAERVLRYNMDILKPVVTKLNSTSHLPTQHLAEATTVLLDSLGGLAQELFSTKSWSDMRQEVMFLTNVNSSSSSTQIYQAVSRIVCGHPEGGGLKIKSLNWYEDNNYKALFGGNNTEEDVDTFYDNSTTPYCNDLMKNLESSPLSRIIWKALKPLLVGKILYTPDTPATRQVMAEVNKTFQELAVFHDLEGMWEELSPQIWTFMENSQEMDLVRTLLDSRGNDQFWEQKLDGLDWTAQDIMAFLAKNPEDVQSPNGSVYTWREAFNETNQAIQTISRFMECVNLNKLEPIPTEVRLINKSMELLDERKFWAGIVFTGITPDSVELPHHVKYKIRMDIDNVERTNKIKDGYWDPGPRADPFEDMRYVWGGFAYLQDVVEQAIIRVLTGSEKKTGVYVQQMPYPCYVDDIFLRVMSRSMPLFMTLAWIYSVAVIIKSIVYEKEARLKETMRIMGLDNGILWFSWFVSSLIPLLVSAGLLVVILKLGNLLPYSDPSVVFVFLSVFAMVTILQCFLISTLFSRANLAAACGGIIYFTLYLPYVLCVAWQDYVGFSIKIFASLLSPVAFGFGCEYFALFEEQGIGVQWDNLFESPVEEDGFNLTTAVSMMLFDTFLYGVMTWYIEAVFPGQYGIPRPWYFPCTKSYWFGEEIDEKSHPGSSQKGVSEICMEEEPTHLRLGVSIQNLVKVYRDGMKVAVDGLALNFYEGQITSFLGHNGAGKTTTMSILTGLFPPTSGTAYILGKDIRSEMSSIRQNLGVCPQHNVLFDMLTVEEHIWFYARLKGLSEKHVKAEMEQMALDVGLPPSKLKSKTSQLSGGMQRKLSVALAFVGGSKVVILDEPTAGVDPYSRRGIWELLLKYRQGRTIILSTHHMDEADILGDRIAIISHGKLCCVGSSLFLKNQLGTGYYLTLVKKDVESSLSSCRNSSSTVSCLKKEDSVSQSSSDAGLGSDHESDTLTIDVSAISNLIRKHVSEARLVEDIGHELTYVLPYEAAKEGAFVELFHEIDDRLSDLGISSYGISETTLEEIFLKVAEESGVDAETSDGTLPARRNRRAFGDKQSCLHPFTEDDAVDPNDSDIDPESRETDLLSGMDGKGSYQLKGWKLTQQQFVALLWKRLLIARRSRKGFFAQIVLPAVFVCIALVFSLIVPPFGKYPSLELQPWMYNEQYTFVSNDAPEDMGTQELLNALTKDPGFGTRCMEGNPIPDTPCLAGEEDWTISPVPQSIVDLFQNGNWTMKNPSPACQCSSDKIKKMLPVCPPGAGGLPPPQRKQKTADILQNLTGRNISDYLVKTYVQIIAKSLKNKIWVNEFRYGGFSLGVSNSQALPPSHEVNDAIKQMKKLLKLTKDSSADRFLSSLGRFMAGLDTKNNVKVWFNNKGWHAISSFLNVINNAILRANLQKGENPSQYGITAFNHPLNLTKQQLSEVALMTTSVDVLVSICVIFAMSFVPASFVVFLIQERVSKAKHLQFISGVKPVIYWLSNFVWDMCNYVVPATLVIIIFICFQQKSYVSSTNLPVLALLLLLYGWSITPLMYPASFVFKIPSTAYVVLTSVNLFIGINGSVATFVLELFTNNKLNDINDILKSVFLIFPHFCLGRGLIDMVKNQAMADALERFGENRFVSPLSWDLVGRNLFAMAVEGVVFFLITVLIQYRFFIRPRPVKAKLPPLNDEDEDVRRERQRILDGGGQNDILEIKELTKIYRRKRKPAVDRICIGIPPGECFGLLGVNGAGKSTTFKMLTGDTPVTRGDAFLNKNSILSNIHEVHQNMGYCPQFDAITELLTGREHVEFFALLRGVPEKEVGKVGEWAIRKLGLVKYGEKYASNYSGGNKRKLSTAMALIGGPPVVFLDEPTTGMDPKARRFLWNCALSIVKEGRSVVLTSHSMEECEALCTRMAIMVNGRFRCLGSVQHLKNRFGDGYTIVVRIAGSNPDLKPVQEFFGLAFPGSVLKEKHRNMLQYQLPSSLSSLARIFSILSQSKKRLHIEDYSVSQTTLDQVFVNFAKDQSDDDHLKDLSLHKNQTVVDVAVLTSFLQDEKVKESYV

Binder | % cholesterol efflux/8 hours, +cAMP [1] [%] | % cholesterol efflux/8 hours, -cAMP [1] [%] | % cholesterol efflux/4 hours at 0.1 µg/ml [2] [%] | % cholesterol efflux/4 hours at 0.3 µg/ml [2] [%] | % cholesterol efflux/4 hours at 1.0 µg/ml [2] [%] | % cholesterol efflux/4 hours at 3.0 µg/ml [2] [%] | % cholesterol efflux/4 hours at 10 µg/ml [2] [%] | % cholesterol efflux/4 hours at 30 µg/ml [2] [%] | % cholesterol efflux/8 hours, No cAMP [3] [%] | % cholesterol efflux/8 hours, Plus cAMP [3] [%] | % cholesterol efflux/4 hours at 0.1 µg/ml [4] [%] | % cholesterol efflux/4 hours at 0.3 µg/ml [4] [%] | % cholesterol efflux/4 hours at 1.0 µg/ml [4] [%] | % cholesterol efflux/4 hours at 3.0 µg/ml [4] [%] | % cholesterol efflux/4 hours at 10 µg/ml [4] [%] | % cholesterol efflux/4 hours at 30 µg/ml [4] [%] | also measured
ELREKLEAWFELFAEFFARF [N356-6] |  |  |  |  |  |  |  |  | 2.09 | 4.04 | 0.01 | 0.23 | 0.67 | 4.07 | 3.78 | 3.91 | 
ELREKLEAWRELFEEFFARFKS [N356-2] |  |  |  |  |  |  |  |  | 1.27 | 6.52 | 0 | 0 | 0.02 | 1.3 | 5.7 | 5.92 | 
ELREKLEAWFELFAEFFARFK [N356-5] |  |  |  |  |  |  |  |  | 2.18 | 5.97 | 0.02 | 0.31 | 1.59 | 4.27 | 3.86 | 3.2 | 
ELREKLEAWFEAFEEFFARFKS [N356-1] |  |  |  |  |  |  |  |  | 0.86 | 4.16 | 0 | 0 | 0.23 | 4.71 | 5.61 | 3.5 | 
ELREKLEAWFELFEEFFARFKS [N356-3] |  |  |  |  |  |  |  |  | 0.82 | 3.94 | 0 | 0.57 | 1.2 | 4.34 | 5.13 | 3.24 | 
ELREKLEAWFELFAEFFARFKS [N356-4] |  |  |  |  |  |  |  |  | 1.72 | 4.25 | 0.14 | 0.61 | 1.89 | 5.68 | 6.06 | 6.52 | 
ELREKLEAWLELLRELLERL [N1154-6] |  |  |  |  |  |  |  |  |  |  |  |  |  |  |  |  | % cholesterol efflux/8 hours, No cAMP [5]: 1.17%; % cholesterol efflux/8 hours, Plus cAMP [5]: 4.29%; % cholesterol efflux/4 hours at 0.1 µg/ml [6]: 0.18%; % cholesterol efflux/4 hours at 0.3 µg/ml [6]: 0.46%; % cholesterol efflux/4 hours at 1.0 µg/ml [6]: 2.51%; % cholesterol efflux/4 hours at 3.0 µg/ml [6]: 4.73%; % cholesterol efflux/4 hours at 10 µg/ml [6]: 3.56%; % cholesterol efflux/4 hours at 30 µg/ml [6]: 2.71%
ELRAKLEAWFEAFAEFFARF [N356-7] |  |  |  |  |  |  |  |  | 2.78 | 7 | 0.15 | 0.23 | 1.17 | 4.99 | 5.49 | 5.66 | 

More lines, main results first:

% cholesterol efflux/8 hours, +cAMP [1] [%] | % cholesterol efflux/8 hours, -cAMP [1] [%] | % cholesterol efflux/4 hours at 0.1 µg/ml [2] [%] | % cholesterol efflux/4 hours at 0.3 µg/ml [2] [%] | % cholesterol efflux/4 hours at 1.0 µg/ml [2] [%] | % cholesterol efflux/4 hours at 3.0 µg/ml [2] [%] | % cholesterol efflux/4 hours at 10 µg/ml [2] [%] | % cholesterol efflux/4 hours at 30 µg/ml [2] [%] | % cholesterol efflux/8 hours, No cAMP [3] [%] | % cholesterol efflux/8 hours, Plus cAMP [3] [%] | % cholesterol efflux/4 hours at 0.1 µg/ml [4] [%] | % cholesterol efflux/4 hours at 0.3 µg/ml [4] [%] | % cholesterol efflux/4 hours at 1.0 µg/ml [4] [%] | % cholesterol efflux/4 hours at 3.0 µg/ml [4] [%] | % cholesterol efflux/4 hours at 10 µg/ml [4] [%] | % cholesterol efflux/4 hours at 30 µg/ml [4] [%] | Binder | also measured
4.03 | 1.5 | 0.03 | 0.3 | 1.39 | 4.94 | 3.65 | 2.66 |  |  |  |  |  |  |  |  | EVREKLEAWFELFREFLERF [N965-7] | 
5.52 | 2.91 | 0.12 | 0.9 | 2.13 | 4.89 | 4.06 | 3.82 |  |  |  |  |  |  |  |  | EVREKLEAWFELFREFLERFLS [N965-5] | 
9.9 | 1.75 | 0 | 0.13 | 0 | 0.44 | 2.9 | 6.01 |  |  |  |  |  |  |  |  | EVREKLEAWFEAFREFAERFKS [N965-1] | 
6.18 | 3.15 | 0.11 | 0.49 | 1.59 | 1.98 | 2.22 | 2.75 |  |  |  |  |  |  |  |  | EVREKLEAWFELFREFLERFL [N965-6] | 
2.94 | 1.06 | 0.03 | 0.41 | 0.72 | 2.45 | 1.77 | 1.41 |  |  |  |  |  |  |  |  | ELREKLEAWRELFEEFFARFLS [N965-9] | 
6.97 | 1.28 | 0 | 0.13 | 0.01 | 2.23 | 5.96 | 3.98 |  |  |  |  |  |  |  |  | EVREKLEAWFELFREFAERFKS [N965-2] | 
3.85 | 1.45 | 0.23 | 0.47 | 1.06 | 3.48 | 3.05 | 2.53 |  |  |  |  |  |  |  |  | EVREKLEAWFELFREFAERFLS [N965-3] | 
4.76 | 1.52 | 0.29 | 0.67 | 2.7 | 4.72 | 4 | 2.94 |  |  |  |  |  |  |  |  | EVREKLEAWFELFREFLERFKS [N965-4] | 
